Biological target: bril-ACKR3WT (human) (UniProt P25106)
Assay: flow cytometry on cells

Sequence of bril-ACKR3WT (human) (P25106 2-332): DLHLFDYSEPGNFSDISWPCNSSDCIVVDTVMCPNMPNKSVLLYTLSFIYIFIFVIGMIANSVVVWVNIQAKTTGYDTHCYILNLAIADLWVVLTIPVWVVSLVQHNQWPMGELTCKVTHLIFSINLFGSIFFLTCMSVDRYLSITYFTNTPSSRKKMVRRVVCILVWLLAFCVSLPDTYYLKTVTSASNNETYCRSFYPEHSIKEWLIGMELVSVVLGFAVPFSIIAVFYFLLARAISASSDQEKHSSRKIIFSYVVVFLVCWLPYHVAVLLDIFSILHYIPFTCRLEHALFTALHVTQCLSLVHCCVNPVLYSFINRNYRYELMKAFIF

Question: For “HA-tagged CXCL12P2G (from UniProt P48061 22-93) (ligand)”, which dissociative half-life is on record?
Answer: Its dissociative half-life is 7.2 min.
